Measurements published in patent US20230212286A1 (INNOBATION BIO, published 2023).
Residue numbers refer to the chain shown, from its start. One block for each binder: values may come before it.

Molecular target: T1, CD22-His tag (CD22 extracellular domain; Acrobiosystems Inc.) (UniProt P20273 20-687, limits assumed)
T1 construct: extracellular domain; Bought reagent coated at 100 ng/well; also called CD22 peptide; not shown: His tag
T1 sequence (looked up): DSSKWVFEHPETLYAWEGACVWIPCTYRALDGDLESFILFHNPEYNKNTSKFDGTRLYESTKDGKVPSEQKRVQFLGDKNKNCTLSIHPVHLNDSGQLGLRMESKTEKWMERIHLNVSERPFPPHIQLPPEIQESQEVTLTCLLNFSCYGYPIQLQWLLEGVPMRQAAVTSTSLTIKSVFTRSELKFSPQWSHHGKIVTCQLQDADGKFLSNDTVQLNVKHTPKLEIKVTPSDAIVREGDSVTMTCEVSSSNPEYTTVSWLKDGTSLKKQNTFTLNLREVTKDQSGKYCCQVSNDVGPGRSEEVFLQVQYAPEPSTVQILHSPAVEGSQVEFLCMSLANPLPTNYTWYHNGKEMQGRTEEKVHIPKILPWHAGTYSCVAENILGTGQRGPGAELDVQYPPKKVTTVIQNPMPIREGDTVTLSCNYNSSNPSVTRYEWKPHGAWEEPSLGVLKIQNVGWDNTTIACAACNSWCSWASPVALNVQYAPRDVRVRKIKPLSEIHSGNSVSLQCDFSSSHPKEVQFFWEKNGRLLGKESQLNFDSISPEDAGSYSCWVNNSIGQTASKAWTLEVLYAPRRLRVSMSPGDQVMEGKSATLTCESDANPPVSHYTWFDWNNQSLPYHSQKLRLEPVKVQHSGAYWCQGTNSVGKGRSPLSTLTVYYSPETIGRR
Assay: ELISA, CD22-His tag coated at 100 ng/well, primary antibody 0.4 ug/ml
Experimental: 1C2, 9E9, 2A9, 2G1 and 6B3 antibodies were treated in each well, and then reacted at room temperature for 2 hours, and then washed 3 times with 1 X PBST. Secondary antibody ([…], 1:10,000) was treated and reacted at room temperature for 30 minutes, washed 3 times with 1 X PBST, and then treated with TMB for color development and reacted at room temperature for 5 minutes. Finally, the reaction was terminated by treatment with a stop solution of 1N H₂SO₄, and then the absorbance was measured at 450 nm.

OD450 measurements: 1.76 absorbance at 450 nm
B1: 9E9 antibody (antibody, V domains shown)
VH: EVQLEESGAELVRPGSSVKISCKASGYAFSIYWMNWVKQRPGQGLEWIGQIYPGDGDTNYNGKFKGKATLTADKSSSTAYMQLSSLTSEDSAVYFCARRGITPWFAYWGQGTLVTVSA
VL: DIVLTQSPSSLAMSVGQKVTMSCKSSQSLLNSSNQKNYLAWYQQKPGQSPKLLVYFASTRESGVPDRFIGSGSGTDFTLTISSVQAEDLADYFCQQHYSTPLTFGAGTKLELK
notes: Monoclonal antibody from a hybridoma, detected in FACS with goat anti-mouse IgG

OD450 measurements: 1.79 absorbance at 450 nm
B2: 6B3 antibody (antibody, V domains shown)
VH: EVQLQQSGPELVKPGASVKISCKASGYTFTDYNMHWVKQSHGKSLEWIGYIYPYNGGTGYKQKFKSKATLTVDNSSSTAYMELRSLTSEDSAVYYCARLYYYGRTSYWGQGTTLTVSS
VL: DIVMTQSQKFMSTSVGDRVSVTCKASQNVGTYVAWYQQKPGQSPKALIYSASYRYSGVPDRFTGSGSGTDFTLTISIVQSEDLAEYFCHQYDSYPYTFGGGTKLEIK
notes: as for B1

Continued, binder first:

B3: 2A9 antibody (antibody, V domains shown)
VH: EVQLEESGAELVKPGASVKMSCKAFGYTFTTYPIEWMKQNHGKSLEWIGNFHPYNDDTKYNEKFKGKAKLTVEKSSSTVYLELSRLTSDDSAVYYCARGDYYVSSWYFDVWGAGTTVTVSS
VL: B2 VL with Y32N, I77N, H89Q, D92N, Y96L, G100S
notes: as for B1
OD450 measurements: 2.93 absorbance at 450 nm

B4: 2G1 antibody (antibody, V domains shown)
VH: EVQLQESGPGLVAPSQSLSITCTVSGFSLTSYDISWIRQPPGKGLEWLGVIWTGGGTNYNSAFMSRLSISKDNSKSQVFLKMNSLQTDDTAIYYCVPHYYGYAMDYWGQGTSVTVSS
VL: DIVLTQSPSSLSASLGGKVTITCKASQDINKYIAWYQHKPGKGPRLLIHYTSTLQPGIPSRFSGSGSGRDYSFSISNLEPEDIATYYCLQYDNLLTFGAGTKLELK
notes: as for B1
OD450 measurements: 2.54 absorbance at 450 nm

B5: 1C2 antibody (antibody, V domains shown)
VH: QVQLQQPGAELVRPGASVKLSCKASGYTFTSYWMNWVKQRPGQGLEWIGMIDPSDSETHYNQMFKDKATLTVDKSSSTAYMQLSSLTSEDSAVYYCARWGNYDYDVWAMDYWGQGTSVTVSS
VL: DVLMTQTPLSLPVSLGDQASISCRSSQNIVHLNGNTFLEWFLQKPGQSPKLLIYKVSNRFSGVPDRFSGSGSGTDFTLKISRVEAEDLGVYYCFQGSHVPYTFGGGTKLEIK
notes: Monoclonal antibody from a hybridoma (fusion with mouse myeloma cells), detected in FACS with goat anti-mouse IgG
OD450 measurements: 2.43 absorbance at 450 nm
